Publication PMC11369174, “Proteome-scale characterisation of motif-based interactome rewiring by disease mutations” (Molecular Systems Biology, 2024)

Assays:
KPNA4 ARM = test: GenVar_HD2 ProP-PD phage selection, KPNA4 ARM; format: binding, human; settings: bait-prey protein level, bait_accession O00629
ABL1 SH3 = ABL1 SH3 (Homo sapiens, UniProt P00519); test: GenVar_HD2 ProP-PD phage selection, ABL1 SH3; format: binding; settings: bait domain-prey protein level, bait ABL1_SH3__P00519_60_121
Chain of ABL1 SH3 (P00519 60-121): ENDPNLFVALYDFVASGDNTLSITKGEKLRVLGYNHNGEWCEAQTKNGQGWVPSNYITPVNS

Row | Molecule | max_promiscuity (KPNA4 ARM) | max_specificity (KPNA4 ARM) | max_promiscuity (ABL1 SH3) | max_specificity (ABL1 SH3)
1 | O60832 (protein, UniProt O60832 1-514, looked up, full-length) MADAEVIILPKKHKKKKERKSLPEEDVAEIQHAEEFLIKPESKVAKLDTSQWPLLLKNFDKLNVRTTHYTPLACGSNPLKREIGDYIRTGFINLDKPSNPSSHEVVAWIRRILRVEKTGHSGTLDPKVTGCLIVCIERATRLVKSQQSAGKEYVGIVRLHNAIEGGTQLSRALETLTGALFQRPPLIAAVKRQLRVRTIYESKMIEYDPERRLGIFWVSCEAGTYIRTLCVHLGLLLGVGGQMQELRRVRSGVMSEKDHMVTMHDVLDAQWLYDNHKDESYLRRVVYPLEKLLTSHKRLVMKDSAVNAICYGAKIMLPGVLRYEDGIEVNQEIVVITTKGEAICMAIALMTTAVISTCDHGIVAKIKRVIMERDTYPRKWGLGPKASQKKLMIKQGLLDKHGKPTDSTPATWKQEYVDYSESAKKEVVAEVVKAPQVVAEAAKTAKRKRESESESDETPPAAPQLIKKEKKKSKKDKKAKAGLESGAEPGDGDSDTTKKKKKKKKAKEVELVSE | 3 | 1 |  | 
2 | ESPN (protein, UniProt B1AK53 1-854, looked up) Espin: MALEQALQAARQGELDVLRSLHAAGLLGPSLRDPLDALPVHHAARAGKLHCLRFLVEEAALPAAARARNGATPAHDASATGHLACLQWLLSQGGCRVQDKDNSGATVLHLAARFGHPEVVNWLLHHGGGDPTAATDMGALPIHYAAAKGDFPSLRLLVEHYPEGVNAQTKNGATPLYLACQEGHLEVTQYLVQECGADPHARAHDGMTPLHAAAQMGHSPVIVWLVSCTDVSLSEQDKDGATAMHFAASRGHTKVLSWLLLHGGEISADLWGGTPLHDAAENGELECCQILVVNGAELDVRDRDGYTAADLSDFNGHSHCTRYLRTVENLSVEHRVLSRDPSAELEAKQPDSGMSSPNTTVSVQPLNFDLSSPTSTLSNYDSCSSSHSSIKGQHPPCGLSSARAADIQSYMDMLNPELGLPRGTIGKPTPPPPPPSFPPPPPPPGTQLPPPPPGYPAPKPPVGPQAADIYMQTKNKLRHVETEALKKELSSCDGHDGLRRQDSSRKPRAFSKQPSTGDYYRQLGRCPGETLAARPGMAHSEEVRARQPARAGCPRLGPAARGSLEGPSAPPQAALLPGNHVPNGCAADPKASRELPPPPPPPPPPLPEAASSPPPAPPLPLESAGPGCGQRRSSSSTGSTKSFNMMSPTGDNSELLAEIKAGKSLKPTPQSKGLTTVFSGIGQPAFQPDSPLPSVSPALSPVRSPTPPAAGFQPLLNGSLVPVPPTTPAPGVQLDVEALIPTHDEQGRPIPEWKRQVMVRKMQLKMQEEEEQRRKEEEEEARLASMPAWRRDLLRKKLEEEREQKRKEEERQKQEELRREKEQSEKLRTLGYDESKLAPWQRQVILKKGDIAKY |  |  | 2 | 0.8421
3 | O60934 (protein, UniProt O60934 1-754, looked up, full-length) MWKLLPAAGPAGGEPYRLLTGVEYVVGRKNCAILIENDQSISRNHAVLTANFSVTNLSQTDEIPVLTLKDNSKYGTFVNEEKMQNGFSRTLKSGDGITFGVFGSKFRIEYEPLVACSSCLDVSGKTALNQAILQLGGFTVNNWTEECTHLVMVSVKVTIKTICALICGRPIVKPEYFTEFLKAVESKKQPPQIESFYPPLDEPSIGSKNVDLSGRQERKQIFKGKTFIFLNAKQHKKLSSAVVFGGGEARLITEENEEEHNFFLAPGTCVVDTGITNSQTLIPDCQKKWIQSIMDMLQRQGLRPIPEAEIGLAVIFMTTKNYCDPQGHPSTGLKTTTPGPSLSQGVSVDEKLMPSAPVNTTTYVADTESEQADTWDLSERPKEIKVSKMEQKFRMLSQDAPTVKESCKTSSNNNSMVSNTLAKMRIPNYQLSPTKLPSINKSKDRASQQQQTNSIRNYFQPSTKKRERDEENQEMSSCKSARIETSCSLLEQTQPATPSLWKNKEQHLSENEPVDTNSDNNLFTDTDLKSIVKNSASKSHAAEKLRSNKKREMDDVAIEDEVLEQLFKDTKPELEIDVKVQKQEEDVNVRKRPRMDIETNDTFSDEAVPESSKISQENEIGKKRELKEDSLWSAKEISNNDKLQDDSEMLPKKLLLTEFRSLVIKNSTSRNPSGINDDYGQLKNFKKFKKVTYPGAGKLPHIIGGSDLIAHHARKNTELEEWLRQEMEVQNQHAKEESLADDLFRYNPYLKRRR | 1 | 1 |  | 
4 | FANCG (protein, UniProt O15287 1-622, looked up) Fanconi anemia group G protein: MSRQTTSVGSSCLDLWREKNDRLVRQAKVAQNSGLTLRRQQLAQDALEGLRGLLHSLQGLPAAVPVLPLELTVTCNFIILRASLAQGFTEDQAQDIQRSLERVLETQEQQGPRLEQGLRELWDSVLRASCLLPELLSALHRLVGLQAALWLSADRLGDLALLLETLNGSQSGASKDLLLLLKTWSPPAEELDAPLTLQDAQGLKDVLLTAFAYRQGLQELITGNPDKALSSLHEAASGLCPRPVLVQVYTALGSCHRKMGNPQRALLYLVAALKEGSAWGPPLLEASRLYQQLGDTTAELESLELLVEALNVPCSSKAPQFLIEVELLLPPPDLASPLHCGTQSQTKHILASRCLQTGRAGDAAEHYLDLLALLLDSSEPRFSPPPSPPGPCMPEVFLEAAVALIQAGRAQDALTLCEELLSRTSSLLPKMSRLWEDARKGTKELPYCPLWVSATHLLQGQAWVQLGAQKVAISEFSRCLELLFRATPEEKEQGAAFNCEQGCKSDAALQQLRAAALISRGLEWVASGQDTKALQDFLLSVQMCPGNRDTYFHLLQTLKRLDRRDEATALWWRLEAQTKGSHEDALWSLPLYLESYLSWIRPSDRDAFLEEFRTSLPKSCDL |  |  | 5 | 1
